From PMC7714896 (Signal Transduction and Targeted Therapy, 2020) come the findings set out here.

For the assay, the target named is T1, receptor-binding domain (RBD) of SARS-CoV-2 spike protein (SARS-CoV-2, UniProt P0DTC2).
T1 construct: source: bought: GenScript
Nature of the assay: SPR; BIAcore 3000; […], flow 15 μl/min, […]. Conditions: both partners purified. On the technique in general: Surface plasmon resonance follows binding to a sensor surface in real time, without labels.

As usually defined, the Kd is the equilibrium constant for the complex coming apart.

B1: recombinant human CD147 extracellular fragment (His-CD147) (domain or fragment)
chain: EPGTVFTTVEDLGSKILLTCSLNDSATEVTGHRWLKGGVVLKEDALPGQKTEFKVDSDDQWGEYSCVFLPEPMGTANIQLHGPPRVKAVKSSEHINEGETAMLVCKSESVPPVTDWAWYKITDSEDKALMNGSESRFFVSSSQGRSELHIENLNMEADPGQYRCNGTSSKGSDQAIITLRVRSHLAAL
Molecule B1 displayed a Kd of 185 nM. This lies in the sub-micromolar range.
